Measured values reported in patent US20040265295A1 (WISCONSIN ALUMNI RESEARCH FOUNDATION, published 2004).

Target: T1, talin (Homo sapiens (Human), UniProt Q9Y490 1-2541)
T1 construct: Endogenous talin of HEK293T (and other) cells, detected with anti-talin antibody; also called talin (endogenous, in cell lysates)
Assay: immunoprecipitation of talin from HEK293T cells overexpressing the kinase

T1 sequence (Q9Y490 other isoform, or with tags, fused parts or gaps limits assumed): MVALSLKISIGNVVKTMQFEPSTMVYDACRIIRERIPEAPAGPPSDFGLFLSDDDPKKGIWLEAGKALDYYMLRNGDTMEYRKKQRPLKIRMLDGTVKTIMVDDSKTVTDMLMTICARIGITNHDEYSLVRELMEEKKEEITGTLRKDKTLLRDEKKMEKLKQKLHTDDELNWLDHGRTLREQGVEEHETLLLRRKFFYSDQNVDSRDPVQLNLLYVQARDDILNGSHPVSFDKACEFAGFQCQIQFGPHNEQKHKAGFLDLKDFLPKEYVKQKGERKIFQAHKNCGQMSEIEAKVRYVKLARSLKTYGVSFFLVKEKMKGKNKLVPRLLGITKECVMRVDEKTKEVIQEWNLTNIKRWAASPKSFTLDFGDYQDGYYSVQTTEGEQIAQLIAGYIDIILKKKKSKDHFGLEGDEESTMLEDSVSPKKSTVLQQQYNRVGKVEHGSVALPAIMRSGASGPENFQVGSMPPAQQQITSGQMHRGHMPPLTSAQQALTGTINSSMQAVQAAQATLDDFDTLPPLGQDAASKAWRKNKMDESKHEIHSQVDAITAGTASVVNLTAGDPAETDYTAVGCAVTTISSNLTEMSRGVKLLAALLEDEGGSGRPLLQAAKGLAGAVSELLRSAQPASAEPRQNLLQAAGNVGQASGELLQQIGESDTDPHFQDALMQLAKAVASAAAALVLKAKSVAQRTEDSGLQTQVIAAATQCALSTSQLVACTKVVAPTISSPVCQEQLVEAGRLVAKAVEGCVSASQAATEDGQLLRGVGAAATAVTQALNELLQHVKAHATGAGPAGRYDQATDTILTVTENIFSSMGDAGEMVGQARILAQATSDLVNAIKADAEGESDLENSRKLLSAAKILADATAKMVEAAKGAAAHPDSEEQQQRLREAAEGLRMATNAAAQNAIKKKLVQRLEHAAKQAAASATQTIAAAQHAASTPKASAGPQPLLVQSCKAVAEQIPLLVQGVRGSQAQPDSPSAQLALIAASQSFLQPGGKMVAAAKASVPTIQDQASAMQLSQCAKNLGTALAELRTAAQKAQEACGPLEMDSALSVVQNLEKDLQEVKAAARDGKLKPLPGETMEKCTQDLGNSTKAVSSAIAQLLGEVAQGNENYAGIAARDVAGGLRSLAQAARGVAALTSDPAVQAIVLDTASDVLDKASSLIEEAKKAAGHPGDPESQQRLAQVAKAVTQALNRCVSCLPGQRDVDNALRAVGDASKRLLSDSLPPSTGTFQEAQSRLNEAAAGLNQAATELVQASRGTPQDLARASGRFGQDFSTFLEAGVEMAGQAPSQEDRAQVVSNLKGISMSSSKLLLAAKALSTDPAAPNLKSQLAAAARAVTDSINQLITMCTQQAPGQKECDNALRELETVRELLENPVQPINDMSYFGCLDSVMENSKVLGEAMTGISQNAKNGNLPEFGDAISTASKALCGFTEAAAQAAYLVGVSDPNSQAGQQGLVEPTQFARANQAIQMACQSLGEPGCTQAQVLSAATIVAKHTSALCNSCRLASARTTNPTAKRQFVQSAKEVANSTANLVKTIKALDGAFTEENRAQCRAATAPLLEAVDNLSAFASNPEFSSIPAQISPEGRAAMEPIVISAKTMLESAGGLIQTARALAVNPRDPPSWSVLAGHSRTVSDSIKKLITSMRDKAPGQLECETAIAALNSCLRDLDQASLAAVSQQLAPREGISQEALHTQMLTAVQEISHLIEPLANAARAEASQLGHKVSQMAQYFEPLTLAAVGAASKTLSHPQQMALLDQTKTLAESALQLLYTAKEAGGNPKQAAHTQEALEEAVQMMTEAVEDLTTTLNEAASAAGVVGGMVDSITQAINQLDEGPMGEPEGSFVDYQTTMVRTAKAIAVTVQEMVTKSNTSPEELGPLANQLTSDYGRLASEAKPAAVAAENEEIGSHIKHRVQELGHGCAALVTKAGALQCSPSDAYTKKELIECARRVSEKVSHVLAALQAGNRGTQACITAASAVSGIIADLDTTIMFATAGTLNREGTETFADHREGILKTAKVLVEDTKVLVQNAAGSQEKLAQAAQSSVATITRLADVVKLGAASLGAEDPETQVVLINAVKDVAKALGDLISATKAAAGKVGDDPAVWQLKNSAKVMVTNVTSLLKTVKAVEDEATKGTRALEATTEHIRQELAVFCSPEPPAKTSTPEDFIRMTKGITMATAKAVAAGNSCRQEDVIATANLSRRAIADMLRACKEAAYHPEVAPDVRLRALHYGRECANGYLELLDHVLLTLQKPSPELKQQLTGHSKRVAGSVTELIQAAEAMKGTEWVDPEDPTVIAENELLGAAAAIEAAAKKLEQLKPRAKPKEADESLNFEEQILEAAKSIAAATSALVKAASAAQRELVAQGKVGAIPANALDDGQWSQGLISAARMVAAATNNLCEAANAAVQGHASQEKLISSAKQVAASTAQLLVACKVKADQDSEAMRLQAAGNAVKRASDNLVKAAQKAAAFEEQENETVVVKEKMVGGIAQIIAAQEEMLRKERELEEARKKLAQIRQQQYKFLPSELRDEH

B1: Haemagglutinin (HA)-tagged PIPKIγ635 (enzyme, not shown: small tags and cut ends)
chain: MELEVPDEAESAEAGAVTAEAAWSAESGAAAGMTQKKAGLAEAPLVTGQPGPGHGKKLGHRGVDASGETTYKKTTSSTLKGAIQLGIGYTVGNLSSKPERDVLMQDFYVMESIFFPSEGSNFTPAHHFQDFRFKTYAPVAFRYFRELFGIRPDDYLYSLCNEPLIELSNPGASGSVFYVTSDDEFIIKTVMHKEAEFLQKLLPGYYMNLNQNPRTLLPKFYGLYCVQSGGKNIRVVVMNNVLPRVVKMHLKFDLKGSTYKRRASKKEKEKSLPTYKDLDFMQDMPEGLLLDSDTFGALVKTLQRDCLVLESFKIMDYSLLLGVHNIDQQERERQAEGAQSKADEKRPVAQKALYSTAMESIQGGAARGEAIETDDTMGGIPAVNGRGERLLLHIGIIDILQSYRFIKKLEHTWKALVHDGDTVSVHRPSFYAERFFKFMSSTVFRKSSSLKSSPSKKGRGALLAVKPLGPTAAFSASQIPSEREDVQYDLRGARSYPTLEDEGRPDLLPCTPPSFEEATTASIATTLSSTSLSIPERSPSDTSEQPRYRRRTQSSGQDGRPQEEPHAEDLQKITVQVEPVCGVGVVPKEEGAGVEVPPCGASAAASVEIDAASQASEPASQASDEEDAPSTDIYF
B1: no binding.
